The values that follow come from publication PMC7916210, “Identification of Novel phoP-phoQ Regulated Genes that Contribute to Polymyxin B Tolerance in Pseudomonas aeruginosa”.

B1: PPA14_11970 promoter probe (dsDNA)
DNA 1: TGTCTTTGTAACAGGAAATCCTCGATGTTCAGTCCGAAACCGAGCTGCGCGCCCCAGTTG
DNA 2: CAACTGGGGCGCGCAGCTCGGTTTCGGACTGAACATCGAGGATTTCCTGTTACAAAGACA
B2: PPA14_52350 promoter probe (dsDNA)
DNA 1: CATTTGCTGGTGTTCGTTCAGCGATGGTTCAGCTTGCCGTGGGCATAGTGGCGGCTTGCA
DNA 2: TGCAAGCCGCCACTATGCCCACGGCAAGCTGAACCATCGCTGAACGAACACCAGCAAATG
B3: PPA14_50740 promoter probe (dsDNA)
DNA 1: AATCGATTCAGCAATGGTACAGGTTCGTTCAGTTTCGACCGAACCCTCCCGCTTTCATCG
DNA 2: CGATGAAAGCGGGAGGGTTCGGTCGAAACTGAACGAACCTGTACCATTGCTGAATCGATT
B4: PPA14_46900 promoter probe (dsDNA)
DNA 1: GGTTCGTTCAGAAATTGTTCAGGCTTCGTTCAGGCCCGATTCAGGCCGGGTTCAGCAGAA
DNA 2: TTCTGCTGAACCCGGCCTGAATCGGGCCTGAACGAAGCCTGAACAATTTCTGAACGAACC

The target of the data set is PhoP-His (UniProt A0A0H2Z7U0 1-225). Kind of data set: EMSA; PhoP 0, 2, 4 or 8 uM. Conditions: protein: recombinant; tags: C-terminal 6xHis; chain copies: 2; blunt.
With B1, the binding result was “binds”.

For the molecule B2, the binding result is recorded as “binds”.

Consider B3, for which the binding result is “binds”.

For the molecule B4, the binding result was “binds”.
